Measurements as given in patent US20230357420A1 (VILLARIS THERAPEUTICS, published 2023).
Substitutions are numbered along the chain they refer to.

Key:
[1] = target: T1, Human CD122 (human, UniProt P14784 27-551); experiment: cell-based or functional assay
T1 sequence: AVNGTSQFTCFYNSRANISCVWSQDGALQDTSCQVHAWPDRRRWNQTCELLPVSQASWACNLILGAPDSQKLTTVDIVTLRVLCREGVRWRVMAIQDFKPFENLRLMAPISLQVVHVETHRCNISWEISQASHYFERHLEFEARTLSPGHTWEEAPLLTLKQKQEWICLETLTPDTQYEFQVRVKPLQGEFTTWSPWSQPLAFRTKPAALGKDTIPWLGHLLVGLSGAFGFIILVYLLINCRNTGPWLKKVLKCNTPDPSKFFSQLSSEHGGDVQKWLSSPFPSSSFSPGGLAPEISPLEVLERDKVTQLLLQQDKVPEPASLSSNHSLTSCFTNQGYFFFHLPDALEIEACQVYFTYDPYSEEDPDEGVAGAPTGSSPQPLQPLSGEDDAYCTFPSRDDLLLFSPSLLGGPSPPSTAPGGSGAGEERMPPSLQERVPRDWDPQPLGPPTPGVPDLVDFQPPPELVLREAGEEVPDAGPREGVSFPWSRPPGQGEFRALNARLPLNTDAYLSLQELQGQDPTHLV

[2] = target: T2, Human BCAM protein (human, UniProt P50895 32-547, limits assumed); experiment: binding ELISA on human BCAM protein, IgG at log10 about 1.1 to 3.0 nM, OD450nm
T2 construct: Protein used in ELISA; also called BCAM (ELISA antigen)
T2 sequence: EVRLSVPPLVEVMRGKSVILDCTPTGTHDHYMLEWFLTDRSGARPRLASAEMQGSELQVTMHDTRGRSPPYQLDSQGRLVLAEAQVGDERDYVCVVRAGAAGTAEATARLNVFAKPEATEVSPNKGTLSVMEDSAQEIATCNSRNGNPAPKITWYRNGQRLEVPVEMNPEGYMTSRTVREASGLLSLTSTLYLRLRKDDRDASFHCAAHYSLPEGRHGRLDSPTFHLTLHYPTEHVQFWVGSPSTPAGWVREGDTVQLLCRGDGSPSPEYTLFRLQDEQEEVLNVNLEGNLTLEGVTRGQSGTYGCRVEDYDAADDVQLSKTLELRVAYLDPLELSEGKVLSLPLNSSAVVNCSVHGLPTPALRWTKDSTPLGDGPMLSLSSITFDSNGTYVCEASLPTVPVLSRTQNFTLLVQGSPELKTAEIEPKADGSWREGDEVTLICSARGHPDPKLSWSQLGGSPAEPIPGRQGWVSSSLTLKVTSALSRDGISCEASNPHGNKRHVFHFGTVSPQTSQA

[3] = target: T3, Human CD122 His tagged (human, UniProt P14784 27-240); experiment: Biacore SPR, Fab
T3 construct: also called hCD122; monomeric antigen; not shown: His tag
T3 sequence: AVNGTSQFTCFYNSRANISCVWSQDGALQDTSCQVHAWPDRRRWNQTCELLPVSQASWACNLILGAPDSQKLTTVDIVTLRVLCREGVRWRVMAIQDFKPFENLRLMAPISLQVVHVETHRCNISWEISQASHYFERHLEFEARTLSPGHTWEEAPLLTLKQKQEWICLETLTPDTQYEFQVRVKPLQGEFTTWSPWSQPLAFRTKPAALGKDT

[4] = target: T4, Rhesus CD122 His tag (rhesus monkey, UniProt Q38J85 27-240 (cynomolgus entry)); experiment: Biacore SPR, Fab
T4 construct: also called rhCD122; cynomolgus and/or rhesus monkey CD122 His tag; not shown: His tag
T4 sequence: T3 sequence with Q7R, A66T, T74A, L83M, V92M, E127K, L158M

[5] = target: T3, Human CD122 His tagged; experiment: Biacore, Fab affinity and kinetics on hCD122
[6] = target: T5, Human CILP2 protein (human, UniProt Q8IUL8 21-1156, limits assumed); experiment: BIACORE SPR, Fab at 62.5, 125, 250, 500 and 1000 nM on human CILP2 protein; Rmax
T5 construct: also called cartilage intermediate layer protein 2
T5 sequence (looked up): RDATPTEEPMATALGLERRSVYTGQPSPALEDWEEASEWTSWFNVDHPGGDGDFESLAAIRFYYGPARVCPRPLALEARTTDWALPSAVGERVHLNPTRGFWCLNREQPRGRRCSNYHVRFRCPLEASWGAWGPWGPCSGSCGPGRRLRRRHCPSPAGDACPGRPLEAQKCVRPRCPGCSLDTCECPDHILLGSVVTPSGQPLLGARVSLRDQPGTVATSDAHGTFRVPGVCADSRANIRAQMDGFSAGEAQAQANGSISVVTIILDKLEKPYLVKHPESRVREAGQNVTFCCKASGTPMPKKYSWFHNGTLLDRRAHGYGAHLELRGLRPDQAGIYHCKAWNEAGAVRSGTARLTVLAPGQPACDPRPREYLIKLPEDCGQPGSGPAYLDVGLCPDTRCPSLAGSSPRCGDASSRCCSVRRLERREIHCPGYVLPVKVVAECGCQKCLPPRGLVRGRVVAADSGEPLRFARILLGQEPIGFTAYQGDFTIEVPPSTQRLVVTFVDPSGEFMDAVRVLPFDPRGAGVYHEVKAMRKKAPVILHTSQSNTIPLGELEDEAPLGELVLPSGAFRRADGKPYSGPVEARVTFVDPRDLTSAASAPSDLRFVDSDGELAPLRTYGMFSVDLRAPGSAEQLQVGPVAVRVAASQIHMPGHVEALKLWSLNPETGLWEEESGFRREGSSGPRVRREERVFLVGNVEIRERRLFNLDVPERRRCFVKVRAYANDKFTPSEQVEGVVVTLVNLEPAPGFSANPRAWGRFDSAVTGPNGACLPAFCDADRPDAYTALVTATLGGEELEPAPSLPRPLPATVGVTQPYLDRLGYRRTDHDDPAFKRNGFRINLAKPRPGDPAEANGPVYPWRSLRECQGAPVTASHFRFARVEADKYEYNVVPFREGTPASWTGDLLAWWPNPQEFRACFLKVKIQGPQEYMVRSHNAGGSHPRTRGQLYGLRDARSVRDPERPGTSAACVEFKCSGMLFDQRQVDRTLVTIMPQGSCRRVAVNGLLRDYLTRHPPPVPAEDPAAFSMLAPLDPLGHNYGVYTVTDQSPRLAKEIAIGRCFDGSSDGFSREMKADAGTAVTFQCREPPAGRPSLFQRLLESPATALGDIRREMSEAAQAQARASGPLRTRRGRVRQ

[7] = target: T6, Human neudesin protein (human, UniProt Q9UMX5 32-172); experiment: BIACORE SPR, Fab at 62.5, 125, 250, 500 and 1000 nM on human neudesin protein; Rmax
T6 construct: also called NENF

[8] = target: T3, Human CD122 His tagged; experiment: Biacore SPR, Fab, 1:1 binding
[9] = target: T4, Rhesus CD122 His tag; experiment: Biacore SPR, Fab, 1:1 binding

T6 sequence (Q9UMX5 32-172 limits assumed): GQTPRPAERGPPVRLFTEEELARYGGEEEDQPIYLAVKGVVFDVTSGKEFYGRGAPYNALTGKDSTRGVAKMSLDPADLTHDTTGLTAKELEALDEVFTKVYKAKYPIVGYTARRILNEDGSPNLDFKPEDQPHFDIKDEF

B1: MAB05 (antibody, V domains shown)
VH: EVQLLESGGGLVQPGGSLRLSCAASGFTVTSYAVHWVRQAPGKGLEWLGVIWSGGSTDYNAAFISRLTISKDNSKNTVYFQMNSLRAEDTAVYYCARAGDANYDGFAYWGQGTLVTVSS
VL: DIQMTQSPSSLSASVGDRVTITCQASQSVSFLYWYQQRPGKAPRLLIYDTSNLASGVPSRFSGSGSGTSYTFTISSLQPEDIATYYCQQWSTYPLTFGQGTKVEIK
notes: also called Mab5; clone 05
IC50, IL-15-induced CD4+ T cell accumulation [1]: 2.1 µg/mL
IC50, IL-15-induced skin-resident CD8+ T cell accumulation [1]: 1.9 µg/mL
fold improvement of potency over VillMab-1, IL-15 stimulated M07e assay [1]: ~2 fold
binding result [2]: no binding (tested: 1000 nM (log10 3.0))

B2: MAB06 (antibody, V domains shown)
VH: B1 VH
VL: B1 VL with Q27S, L32M
notes: also called Mab6; clone 06
IC50, IL-15-induced CD4+ T cell accumulation [1]: 1.8 µg/mL
IC50, IL-15-induced skin-resident CD8+ T cell accumulation [1]: 1.8 µg/mL
fold improvement of potency over VillMab-1, IL-15 stimulated M07e assay [1]: ~2 fold
binding result [2]: no binding (tested: 1000 nM (log10 3.0))

B3: MAB14 (antibody, human IgG1, V domains shown)
VH: B1 VH with T28S, A33G, V37I
VL: B1 VL
notes: also called clone 14
binding result [2]: binds

B4: MAB17 (antibody, human IgG1, V domains shown)
VH: B1 VH with T28S, A33G, V37I, A101Y
VL: B1 VL
notes: also called clone 17
binding result [2]: binds

B5: FAB14 (Fab, V domains shown)
VH: B1 VH with T28S, A33G, V37I
VL: B1 VL
notes: 06F11-V optimization variant; also called Fab version of MAB14
Kd [3]: 4.34 nM
Kd [4]: 3.52 nM
Kd [5]: 4.3 nM
koff [5]: 0.0037 s⁻¹
kon [5]: 850000 M⁻¹ s⁻¹
binding result [6]: no binding (tested: 1000 nM)
binding result [7]: no binding (tested: 1000 nM)

B6: FAB17 (Fab, V domains shown)
VH: B1 VH with T28S, A33G, V37I, A101Y
VL: B1 VL
notes: 06F11-V optimization variant; also called Fab version of MAB17
Kd [3]: 10.7 nM
Kd [4]: 7.93 nM
Kd [5]: 10.7 nM
koff [5]: 0.0046 s⁻¹
kon [5]: 430000 M⁻¹ s⁻¹
binding result [6]: no binding (tested: 1000 nM)
binding result [7]: no binding (tested: 1000 nM)

B7: VillFab-1 (Fab, V domains shown)
VH: B1 VH with T28S, A33G, V37I, R86Q, V92I, A101Y
VL: B1 VL with Q3V, M4L, Q24S, A25G, Q27S, L32M, I105V
notes: also called Villmab-1 in human Fab format
Kd [3]: 12.4 nM
Kd [4]: 10.2 nM
Kd [8]: 16.5 nM
koff [8]: 0.00372 s⁻¹
kon [8]: 226000 M⁻¹ s⁻¹
Kd [9]: 12 nM
koff [9]: 0.00279 s⁻¹
kon [9]: 233000 M⁻¹ s⁻¹
Kd [5]: 12.4 nM
koff [5]: 0.0034 s⁻¹
kon [5]: 270000 M⁻¹ s⁻¹
binding result [6]: no binding (tested: 1000 nM)
binding result [7]: no binding (tested: 1000 nM)

B8: FAB15 (Fab, V domains shown)
VH: B1 VH with T28S, A33G, V37I
VL: B1 VL with Q27S, L32M
notes: 06F11-V optimization variant; also called Fab version of MAB15
Kd [3]: 5.54 nM
Kd [4]: 4.47 nM
Kd [5]: 5.5 nM
koff [5]: 0.0034 s⁻¹
kon [5]: 610000 M⁻¹ s⁻¹
binding result [6]: no binding (tested: 1000 nM)
binding result [7]: no binding (tested: 1000 nM)
